Legend:
C1 esterase [1] = biological target: T1, C1 esterase (UniProt P09871); assay: cell-based or functional assay
T1 sequence (looked up): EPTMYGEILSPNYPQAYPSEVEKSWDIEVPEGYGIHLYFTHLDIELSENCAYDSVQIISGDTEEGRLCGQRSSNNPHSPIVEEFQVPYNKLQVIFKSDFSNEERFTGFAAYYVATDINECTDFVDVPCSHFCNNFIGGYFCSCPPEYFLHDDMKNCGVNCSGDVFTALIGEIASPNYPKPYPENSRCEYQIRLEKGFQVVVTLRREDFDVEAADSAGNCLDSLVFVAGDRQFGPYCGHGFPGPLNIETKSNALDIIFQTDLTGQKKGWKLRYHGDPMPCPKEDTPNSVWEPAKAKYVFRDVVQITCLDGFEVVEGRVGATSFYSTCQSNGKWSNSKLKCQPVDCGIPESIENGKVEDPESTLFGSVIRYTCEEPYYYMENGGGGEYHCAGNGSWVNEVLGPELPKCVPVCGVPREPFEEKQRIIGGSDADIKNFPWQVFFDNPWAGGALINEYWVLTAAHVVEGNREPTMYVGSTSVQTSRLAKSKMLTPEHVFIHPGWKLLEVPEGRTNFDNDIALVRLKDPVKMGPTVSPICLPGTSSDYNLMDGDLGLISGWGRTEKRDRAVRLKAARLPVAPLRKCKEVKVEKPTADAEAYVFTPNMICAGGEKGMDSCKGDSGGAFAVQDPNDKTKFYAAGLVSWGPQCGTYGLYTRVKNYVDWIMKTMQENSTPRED

kallikrein [2] = biological target: T2, kallikrein (Homo sapiens, UniProt P03952); assay: cell-based or functional assay
Target sequence in this assay (P03952 20-638 limits assumed): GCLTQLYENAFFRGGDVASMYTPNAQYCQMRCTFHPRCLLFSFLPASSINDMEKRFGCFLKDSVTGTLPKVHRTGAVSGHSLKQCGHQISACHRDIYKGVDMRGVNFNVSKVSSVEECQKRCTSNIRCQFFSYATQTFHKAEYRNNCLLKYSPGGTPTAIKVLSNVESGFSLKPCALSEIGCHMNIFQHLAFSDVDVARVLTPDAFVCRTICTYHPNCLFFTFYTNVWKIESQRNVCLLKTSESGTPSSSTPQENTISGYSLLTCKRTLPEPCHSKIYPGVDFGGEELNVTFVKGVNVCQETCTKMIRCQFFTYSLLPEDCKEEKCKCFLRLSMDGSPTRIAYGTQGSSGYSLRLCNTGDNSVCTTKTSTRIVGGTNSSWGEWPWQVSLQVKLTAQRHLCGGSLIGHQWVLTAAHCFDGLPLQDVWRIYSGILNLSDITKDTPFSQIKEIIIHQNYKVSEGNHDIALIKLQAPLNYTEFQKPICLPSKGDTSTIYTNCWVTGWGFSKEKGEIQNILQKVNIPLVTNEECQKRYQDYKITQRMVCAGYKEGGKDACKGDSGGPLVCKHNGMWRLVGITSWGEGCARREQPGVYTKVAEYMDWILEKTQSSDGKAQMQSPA

C1 esterase [3] = biological target: T3, C1 esterase (Homo sapiens, UniProt P09871); assay: C1 INH activity assay: inhibition of C1 esterase activity; type: biochemical; details: for Activity of C1 Esterase inhibition U/mg: 96-well plate, 37° C., kinetic substrate cleavage
T3 sequence (P09871 16-688): T1 sequence (looked up)
Protocol: (§1) C1 INH activity was measured by the inhibition of C1 esterase and kallikrein activities. For the inhibition of C1 esterase activity, samples, standards, and controls were added to 96-well plate, and then C1-esterase was added. After 10 min incubation at 37° C., substrate of C1-eserasse was added. C1-esterase activity for cleavage of the substrate was monitored at 37° C. for 4 minutes kinetically. The higher C1 INH activity results in the lower C1 esterase activity or the lower cleavage rate of substrate. For the inhibition of kallikrein activity, EC50 was used to evaluate PEG-C1 INH activity. Lower EC50 value indicates higher activity of kallikrein inhibition.

kallikrein [4] = biological target: T2, kallikrein; assay: C1 INH activity assay: inhibition of kallikrein activity; type: biochemical; details: lower EC50 = higher activity
Protocol: as §1
Target sequence in this assay (P03952 20-638): as the sequence (P03952 20-638 limits assumed) above

[5] = Conjugate stability on SDS gel (heating, reduction, acid treatment); type: physicochemical
Protocol: The concentration of PEGylated C1 INH was determined by UV at 280 nm (extinction coefficient of C1 INH was 0.39 mL/mg·cm). Sample at 5 μg or 10 μg was loaded into the gel without sample reduction and heating for electrophoresis. In a separate experiment, the samples were heated at 70° C. for 7 minutes in the presence or absence of 75 mM β-mercaptoethanol in gel buffer. There was no evidence of conjugate breakdown under such conditions. […] The protein bands were visualized after simple blue stain. The density of the image was obtained on Molecular Dynamics. […] There were eight PEG (20 or 30k) strands attached per C1 INH as analyzed SEC-MALS.

C1 Esterase Inhibitor (C1 INH), native, sequence (P05155 23-500 limits assumed): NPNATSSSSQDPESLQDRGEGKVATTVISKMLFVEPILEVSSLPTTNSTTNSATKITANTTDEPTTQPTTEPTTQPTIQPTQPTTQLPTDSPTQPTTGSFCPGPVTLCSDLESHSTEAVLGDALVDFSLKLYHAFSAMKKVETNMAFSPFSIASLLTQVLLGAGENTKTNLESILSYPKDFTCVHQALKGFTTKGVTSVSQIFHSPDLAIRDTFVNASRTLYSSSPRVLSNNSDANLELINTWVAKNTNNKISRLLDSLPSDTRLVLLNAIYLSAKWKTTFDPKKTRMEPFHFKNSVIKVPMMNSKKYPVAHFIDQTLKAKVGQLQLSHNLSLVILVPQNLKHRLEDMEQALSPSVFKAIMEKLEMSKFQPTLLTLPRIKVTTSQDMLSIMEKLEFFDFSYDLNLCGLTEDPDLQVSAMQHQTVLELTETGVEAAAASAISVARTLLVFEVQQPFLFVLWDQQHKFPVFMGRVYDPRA
PEG-20k-Glycan-C1 INH (5 mg scale), sequence (P05155 23-500 limits assumed): as above
PEG-20k-Glycan-C1 INH (60 mg scale), sequence (P05155 23-500 limits assumed): as above

Substance | Activity of C1 Esterase inhibition, % C1 INH activity (C1 esterase [1]) [%] | Activity of C1 Esterase inhibition, U/mg (C1 esterase [1]) [U/mg] | Activity of Kallikrein inhibition, % C1 INH activity (kallikrein [2]) [%] | Activity of Kallikrein inhibition, EC50 (kallikrein [2]) [nM] | Activity of C1 Esterase inhibition U/mg (C1 esterase [3]) [U/mg] | EC50 (kallikrein [4]) [nM] | further results
C1 Esterase Inhibitor (C1 INH), native (from UniProt P05155 23-500) | 100 | 7 | 100 | 200 |  |  | 
C1 INH: C1 Esterase Inhibitor obtained from Athens Research & Technology, MW 73000 Da by MALDI; unmodified reference protein |  |  |  |  | 7.0 | 200 | 
PEG-20k-Glycan-C1 INH (5 mg scale) (from UniProt P05155 23-500) | 94 | 6.6 |  |  |  |  | % C1 INH activity on C1 esterase inhibition (small scale) (C1 esterase [1]): 97%
PEG-20k-Glycan-C1 INH (60 mg scale) (from UniProt P05155 23-500) | 73 | 5.1 | 67 | 300 |  |  | 
PEG-20k-Glycan-C1 INH (5 mg scale): Same PEG-20k-hydrazide glycan conjugate of C1 INH prepared at 5 mg scale; PEG number pending |  |  |  |  | 6.6 |  | 
PEG-20k-Glycan-C1 INH (60 mg scale): C1 INH oxidized with periodate at glycan and conjugated with PEG-hydrazide 20k; eight PEG strands per C1 INH |  |  |  |  | 5.1 | 300 | % C1 INH activity on C1 esterase inhibition, small scale (C1 esterase [3]; small scale batch, relative to native C1 INH): 97%; Stability of conjugate under acidic conditions ([5]; 0.1% TFA or sodium acetate, pH 4.7): releasable; Stability of conjugate to heating and reducing at neutral pH ([5]; 70° C. for 7 minutes, with or without 75 mM β-mercaptoethanol, SDS gel): stable

Source: patent publication US20140315826A1, “POLYMERIC CONJUGATES OF C-1 INHIBITORS” (Belrose Pharma, Inc., priority 2012, published 2014)
